The source of these data is patent US20230235304.

Series [1] has as its system T1, CRISPR nuclease variant D535G D535G (synthetic construct).
T1 sequence: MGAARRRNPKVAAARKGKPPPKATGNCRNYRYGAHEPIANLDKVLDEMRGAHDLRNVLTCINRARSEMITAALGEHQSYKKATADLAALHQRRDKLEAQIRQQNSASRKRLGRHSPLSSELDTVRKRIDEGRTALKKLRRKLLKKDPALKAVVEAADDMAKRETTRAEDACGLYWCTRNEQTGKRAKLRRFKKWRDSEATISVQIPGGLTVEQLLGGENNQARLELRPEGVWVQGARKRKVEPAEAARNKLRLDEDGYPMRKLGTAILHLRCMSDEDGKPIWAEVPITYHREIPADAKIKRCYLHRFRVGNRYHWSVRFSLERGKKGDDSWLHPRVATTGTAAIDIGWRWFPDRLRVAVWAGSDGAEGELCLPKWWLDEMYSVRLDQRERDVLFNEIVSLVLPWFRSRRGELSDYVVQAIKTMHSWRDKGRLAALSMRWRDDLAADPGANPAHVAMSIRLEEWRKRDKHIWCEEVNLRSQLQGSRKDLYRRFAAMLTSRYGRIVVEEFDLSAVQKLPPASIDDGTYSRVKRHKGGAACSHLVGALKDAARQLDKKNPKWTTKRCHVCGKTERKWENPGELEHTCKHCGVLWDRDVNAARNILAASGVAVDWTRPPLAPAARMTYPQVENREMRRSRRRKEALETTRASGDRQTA
Briefly: cell_activity. The conditions noted are these: PAM 5'-GCTG-3'; HEK293T; averaged over AAVS1, VEGFA, EMX1 targets.

The test system of series [2] is T2, CRISPR nuclease variant I521R I521R (synthetic construct).
T2 sequence: T1 sequence with I521R, G535D
The series is described as follows: cell_activity. Particulars: PAM 5'-GCTG-3'; HEK293T; averaged over AAVS1, VEGFA, EMX1 targets.

Substitutions are numbered along the chain they refer to.

On to “GGUCCCAUCGGAACGGGUUGUGGUUCCGACGGAGGGAUACAUUGGUGGGG / GGAGGGATACATTGGTGGGG / CCCCACCAATGTATCCCTCC [AAVS1 crRNA (Table 5) ; AAVS1 target (Table 5)]”, for which the binding signal (fold indels vs WT) in series [1] and in series [2] was 3.57 throughout.
